The values that follow come from publication PMC314469, “Protein Interaction Networks by Proteome Peptide Scanning” (PLoS Biology, 2004).

Holding throughout (assay): SPOT array
For assay [1], the target named is T1, Boi2 SH3 (BOI2_YEAST), P39969.
T1 chain: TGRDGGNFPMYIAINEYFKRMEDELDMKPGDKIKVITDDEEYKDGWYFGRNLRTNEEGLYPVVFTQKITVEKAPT

For assay [2], the target named is T2, Boi1 SH3 (BOI1_YEAST), P38041.
T2 chain: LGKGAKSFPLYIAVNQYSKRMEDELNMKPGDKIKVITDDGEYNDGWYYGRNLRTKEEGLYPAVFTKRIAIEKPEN

The target of assay [3] is T3, Yfr024 SH3 (LSB3_YEAST), P43603.
T3 chain: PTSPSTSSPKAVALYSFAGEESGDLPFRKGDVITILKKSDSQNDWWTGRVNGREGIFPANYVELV

Assay [4] concerns the target T4, Rvs167 SH3 (RV167_YEAST), P39743.
T4 chain: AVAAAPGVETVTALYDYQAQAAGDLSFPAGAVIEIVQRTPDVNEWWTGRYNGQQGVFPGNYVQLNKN

The target of assay [5] is T5, Yhr016c SH3 (YSC84_YEAST), P32793.
T5 chain: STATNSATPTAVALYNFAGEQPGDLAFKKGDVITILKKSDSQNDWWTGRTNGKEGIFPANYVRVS

As for PVGPKVPAKEPSPK [YEL043W 874-887], the normalised SPOT signal, Boehringer light units (BLU); mean over the file's lines of this peptide in assay [1] was 5.8; in assay [2], 88; in assay [3], 381; in assay [4], 30.7; in assay [5] it was 48.6.

For QGQPLPPPRGQVIL [YBR108W 287-300], the normalised SPOT signal, Boehringer light units (BLU); mean over the file's lines of this peptide was found to be 83.2 in assay [1]; 231 in assay [2]; 22700 in assay [3]; 8250 in assay [4]; 16000 in assay [5].

Regarding QFVPIAPQRLNMIF [YMR247C 1015-1028], the normalised SPOT signal, Boehringer light units (BLU); mean over the file's lines of this peptide came to 68.9 in assay [1]; 427 in assay [2]; 1580 in assay [3]; 90 in assay [4]; 601 in assay [5].

On to PYPPSLPSRDLYEV [YLL028W 113-126], for which the normalised SPOT signal, Boehringer light units (BLU); mean over the file's lines of this peptide turned out to be 31.1 in assay [1]; 36.2 in assay [2]; 8330 in assay [3]; 944 in assay [4]; 16000 in assay [5].

As for QGEPLDPKRPSTAS [YGL027C 141-154], the normalised SPOT signal, Boehringer light units (BLU); mean over the file's lines of this peptide is 23.1 in assay [1]; 51.9 in assay [2]; 440 in assay [3]; 45.6 in assay [4]; 418 in assay [5].

Take QEKPLTPLKYTKLI [YHL025W 160-173]: the normalised SPOT signal, Boehringer light units (BLU); mean over the file's lines of this peptide in assay [1] was found to be 28.6; in assay [2] it was 78; in assay [3], 929; in assay [4], 99.4; in assay [5] it was 7.1.

Consider PVDPTTPVKLGPGI [YOL142W 12-25], for which the normalised SPOT signal, Boehringer light units (BLU); mean over the file's lines of this peptide in assay [1] is 21.4; in assay [2] it was 40.5; in assay [3], -0; in assay [4], 19; in assay [5], 179.

For the molecule QDSPDMPEKESVYV [YER179W 310-323], the normalised SPOT signal, Boehringer light units (BLU); mean over the file's lines of this peptide in assay [1] was 42.6; in assay [2], 51.6; in assay [3], 26.9; in assay [4], 4.7; in assay [5] it was 0.

For QGYPRQPQRPQRYH [YDR171W 27-40], the normalised SPOT signal, Boehringer light units (BLU); mean over the file's lines of this peptide stood at 377 in assay [1]; 7410 in assay [2]; 13200 in assay [3]; 620 in assay [4]; 8440 in assay [5].

QGPPNLPARDKSLV [YLL023C 9-22]: the normalised SPOT signal, Boehringer light units (BLU); mean over the file's lines of this peptide in assay [1] was 23; in assay [2] it was 63.2; in assay [3], 36100; in assay [4], 18500; in assay [5], 64000.

Regarding PVYPSLPERSKVIL [YGR099W 44-57], the normalised SPOT signal, Boehringer light units (BLU); mean over the file's lines of this peptide amounted to 34 in assay [1]; 40.1 in assay [2]; 24100 in assay [3]; 4000 in assay [4]; 21100 in assay [5].

QGLPASPSRAALRY [YBR038W 55-68]: the normalised SPOT signal, Boehringer light units (BLU); mean over the file's lines of this peptide in assay [1] is 57.8; in assay [2], 1720; in assay [3] it was 522; in assay [4] it was 62.5; in assay [5], 104.

Take QAHPPKPKRREGDI [YKR050W 402-415]: the normalised SPOT signal, Boehringer light units (BLU); mean over the file's lines of this peptide is 38.2 in assay [1]; 133 in assay [2]; 9260 in assay [3]; 41.1 in assay [4]; 740 in assay [5].

Turning to QETPIIPKRIIHYS [YLR030W 11-24], the normalised SPOT signal, Boehringer light units (BLU); mean over the file's lines of this peptide was 246 in assay [1]; 4800 in assay [2]; 15200 in assay [3]; 625 in assay [4]; 7820 in assay [5].

Regarding QAAPRNPNKDATIA [YOR363C 59-72], the normalised SPOT signal, Boehringer light units (BLU); mean over the file's lines of this peptide in assay [1] is 10.5; in assay [2], 78.3; in assay [3], 8.2; in assay [4], 40.7; in assay [5], 46.6.
